Test results: publication PMC12248025 (bioRxiv, 2025)
Values joined by “and” are separate entries in the source; they are usually repeats but may differ in a detail not shown here. Equal values may be shown once.

Molecular target: the molecule itself
Experiment: cryo-EM structure

B1: human IMPDH2 S160del (hIMPDH2-S160del) (enzyme)
chain: not shown
- stoichiometry N: 4 and 8
